Assay results reported in publication PMC10579713, “Melatonin enhances KCl salinity tolerance by maintaining K+ homeostasis in Malus hupehensis”.

Target: T1, MdWRKY53 (Malus hupehensis (CDS amplified from; …, UniProt A0A498JJJ9 1-351)
T1 sequence: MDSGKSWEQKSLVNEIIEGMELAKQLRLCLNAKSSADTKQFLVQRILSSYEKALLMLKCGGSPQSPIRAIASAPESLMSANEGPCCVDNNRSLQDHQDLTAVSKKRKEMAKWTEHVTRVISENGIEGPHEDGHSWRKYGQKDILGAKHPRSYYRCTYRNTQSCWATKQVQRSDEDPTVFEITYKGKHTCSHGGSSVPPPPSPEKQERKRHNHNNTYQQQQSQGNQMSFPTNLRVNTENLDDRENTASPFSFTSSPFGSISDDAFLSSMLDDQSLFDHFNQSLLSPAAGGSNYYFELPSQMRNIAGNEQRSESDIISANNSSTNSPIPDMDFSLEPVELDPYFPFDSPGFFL
Assay: EMSA; unlabeled competitor reduced the binding; LightShift chemiluminescence EMSA kit (Thermo), manufacturer's instructions; buffer, salt, pH and temperature not stated
Conditions: protein: recombinant; tags: GST (N-terminal, pGEX6p-1); blunt

B1: MdNHX2 promoter W-box probe (dsDNA)
DNA 1: TGCACACGTCTTTCGAAGTTGACCAGATCAGTGTGCTTTGA
DNA 2: TCAAAGCACACTGATCTGGTCAACTTCGAAAGACGTGTGCA
Does B1 bind?
Result: binds

B2: MdGORK1 promoter W-box probe (dsDNA)
DNA 1: TTATGTCACCTTATGTTTTTGACACAATTTTTATAACGTTGACACAG
DNA 2: CTGTGTCAACGTTATAAAAATTGTGTCAAAAACATAAGGTGACATAA
Does B2 bind?
Result: binds
